Experimental data: publication PMC2851732 (2010)
Like-named read-outs stand apart in the source and are kept apart here. Ends that are not written are not given here. * marks the point of attachment. FITC = O=C1OC2(c3ccc(O)cc3Oc3cc(O)ccc32)c2ccc(NC(=S)*)cc21; βAla = NCCC(=O)O

Experiments:
[1] = target: T1, DV2 sE(1–395), postfusion trimer (dengue virus type 2, UniProt P12823); test: FP
[2] = target: T1, DV2 sE(1–395), postfusion trimer; test: FP; remark: listed apart in the source

Binder	Kd [1] [µM]	Kd [2] [µM]
{FITC-βAla}-AWDFGSLGGVFTSIGKALHQVF [FITC-conjugated stem peptide DV2^419–440]	0.25	
AILGDTAWDFGSLGGVFTSIGKALHQVFGAIYGAA [stem peptide DV2^413–447]		0.275
{FITC-βAla}-AWDFGSLGGVFTSIGKALHQVFGAIYGAA [FITC-conjugated stem peptide DV2^419–447]	0.125	
